One substance from patent publication US20220220215A1 can be followed below.

This assay has as its target human CD137 expressed on cells (Jurkat human CD137 NF-kB luciferase reporter cells; human CD8+ T cells) (human) (UniProt Q07011). Briefly: cell-based or functional assay.

Urelumab analog (antibody): the CD8+ T-cell activation assay - IL-2 release, EC50 came out at 397 pM.
